Laboratory results as given in US20170088624A1 (Janssen / Centocor, published 2017).
Numbering of substitutions follows the chain as printed.

B1: C40M63 (antibody, human IgG1, kappa, V domains shown)
VH: QVQLVQSGAEVKKPGSSVKVSCKASGGTFSSYAISWVRQAPGQGLEWMGGIIPIFGTANYAQKFQGRVTITADESTSTAYMELSSLRSEDTAVYYCARVGHPAWWRDSLDYWGQGTLVTVSS
VL: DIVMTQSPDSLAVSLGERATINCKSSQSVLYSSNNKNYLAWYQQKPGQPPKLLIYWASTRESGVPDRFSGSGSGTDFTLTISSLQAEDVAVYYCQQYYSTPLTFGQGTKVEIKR
notes: Full-length IgG1/kappa; from phage display
B2: C40M62 (antibody, human IgG1, kappa, V domains shown)
VH: B1 VH with G100A, H101N, P102A, W104Y, W105F, D107S, S108G
VL: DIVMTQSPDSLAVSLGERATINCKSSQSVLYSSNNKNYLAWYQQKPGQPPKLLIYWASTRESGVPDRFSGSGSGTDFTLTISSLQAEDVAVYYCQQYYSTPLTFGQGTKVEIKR
notes: as for B1
B3: C40M102 (antibody, human IgG1, lambda, V domains shown)
VH: EVQLVESGGGLVQPGGSLRLSCAASGFTFSSYAMSWVRQAPGKGLEWVSIINNNVGRTYYADSVKGRFTISRDNSKNTLYLQMNSLRAEDTAVYYCAKEGGDYYYYGMDVWGQGTTVTVSS
VL: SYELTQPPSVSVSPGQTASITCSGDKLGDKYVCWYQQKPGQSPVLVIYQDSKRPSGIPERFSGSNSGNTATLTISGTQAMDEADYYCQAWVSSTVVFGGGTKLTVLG
notes: Variant of C40M18 (VH C40H48, VL C40L70); cloned as IgG1
B4: C40M18 (antibody, human IgG1, lambda, V domains shown)
VH: B3 VH
VL: SYELTQPPSVSVSPGQTASITCSGDKLGDKYVCWYQQKPGQSPVVVIYQDSKRPSGIPERFSGSNSGNTATLTISGTQAMDEAYYYCQAWVSSTVVFGGGTKLTVLG
notes: Full-length IgG1/lambda; from OmniRat (OMT); VH C40H48, VL C40L64
B5: C40M103 (antibody, human IgG1, lambda, V domains shown)
VH: B3 VH
VL: B4 VL with C33S, V45L, Y84D
notes: Variant of C40M18 (VH C40H48, VL C40L69; LCDR1 cysteine mutated); cloned as IgG1
B6: C40M104 (antibody, human IgG1, lambda, V domains shown)
VH: B3 VH
VL: B4 VL with C33S
notes: Variant of C40M18 (VH C40H48, VL C40L68; LCDR1 cysteine mutated); cloned as IgG1
B7: C40M105 (antibody, human IgG1, lambda, V domains shown)
VH: QLQLQESGPGLVKPSETLSLTCTVSGGSISSSSYYWGWIRQPPGKGLEWIGNIYYRGDTYYSPSLKSRVTISVDTSKNQFSLKLSSVTAADTAVYYCARGFRFDYWGQGTLVTVSS
VL: QSALTQPPSASGSPGQSVTISCTGTSSDVGGYNYVSWYQQHPGKAPKLMIYEVSKRPSGVPDRFSGSKSGNTASLTVSGLQAEDEADYYCSSYAGSNNLVFGGGTKLTVLG

Columns and labels:
[1] = molecular target: T1, Full length human CD40 (huCD40) on cells (human, UniProt P25942 21-277); assay: cell-based or functional assay
[2] = molecular target: T2, Macaca fascicularis (cyno) CD40 (cCD40) on cells (Macaca fascicularis (cynomolgus), UniProt P25942 21-277 (human entry)); assay: flow cytometry, cyno mature DCs
T2 construct: CD40 on cyno mature DCs
T2 chain: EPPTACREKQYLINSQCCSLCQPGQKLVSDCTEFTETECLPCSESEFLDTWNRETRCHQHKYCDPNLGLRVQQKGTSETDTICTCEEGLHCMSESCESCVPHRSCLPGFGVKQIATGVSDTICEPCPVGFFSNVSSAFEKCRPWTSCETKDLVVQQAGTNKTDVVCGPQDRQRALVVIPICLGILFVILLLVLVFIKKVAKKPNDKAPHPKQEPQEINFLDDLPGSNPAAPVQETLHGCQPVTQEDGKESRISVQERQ
Description: (§1) Human monocytes were isolated from either frozen/fresh PBMC using CD14 negative isolation kit per manufacturer's protocol (MACS Miltenyi). Cyno monocytes were isolated from fresh PBMC using CD14 positive isolation kit per manufacturer's protocol (MACS Miltenyi). To generate DCs, monocytes were cultured for 5 days in complete media RPMI (Invitrogen) in the presence of 100 ng/ml human GM-CSF and human IL-4 (Peprotech) and media was replenished every 2 days. On day 5, DCs were stimulated with 100 ng/ml LPS (Sigma) for 24 hours. Cells were then stained with each of the tested CD40 antibody at different concentration in flow cytometry buffer (PBS+1% FBS; BD Bioscience) in 100 μl volume for 30 minutes on ice followed with two washes with flow buffer. Cells were then stained for additional 30 minutes on ice with APC-conjugated anti human IgG (Jackson ImmunoResearch) at the recommended dilution 1:100 and washed twice with flow buffer. Cells were analyzed for percent positive and Mean Fluorescence Intensity (MFI) to determine the antibody binding using Fortessa (BD Bioscience).
(§2) The experiments were conducted using assays described above. 20 antibodies were characterized further based on their binding to human DCs, cyno DCs, Raji cells and HEK-Blue™ CD40L cells.

[3] = molecular target: T1, Full length human CD40 (huCD40) on cells; assay: flow cytometry, human mature DCs
Description: as §1, §2

[4] = molecular target: T1, Full length human CD40 (huCD40) on cells; assay: flow cytometry, HEK-Blue CD40L cells
[5] = molecular target: T1, Full length human CD40 (huCD40) on cells; assay: cell-based or functional assay; remark: listed apart in the source
cyno CD40 (SPR analyte) [6] = molecular target: T3, cyno CD40 (SPR analyte) (Macaca fascicularis (cynomolgus), UniProt P25942 21-193 (human entry), limits assumed); assay: SPR ProteOn XPR36, mAb captured, cyno CD40 as analyte, 25 C; did not fit well to 1:1 model
T3 construct: also called cCD40-ECD
T3 chain: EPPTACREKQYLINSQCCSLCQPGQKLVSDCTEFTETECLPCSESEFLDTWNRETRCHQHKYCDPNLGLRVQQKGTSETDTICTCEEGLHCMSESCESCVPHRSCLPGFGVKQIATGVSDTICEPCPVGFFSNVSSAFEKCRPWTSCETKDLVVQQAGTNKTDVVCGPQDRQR
Description: (§3) Affinity measurements were performed using Surface Plasmon Resonance (SPR) using a ProteOn XPR36 system (BioRad). […] Approximately 5000 RU (response units) of mAbs were immobilized. The kinetic experiments were performed at 25° C. in running buffer (DPBS+0.01% P20+100 μg/ml BSA). To perform kinetic experiments, 200 RU of mAbs were captured followed by injections of analytes (human or cyno CD40) at 5 concentrations (in a 4-fold serial dilution). The association phase was monitored for 3 minutes at 50 μL/min, then followed by 15 minutes of buffer flow (dissociation phase). The chip surface was regenerated with two 18 second pulses of 100 mM H₃PO₄ (Sigma, Cat#7961) at 100 μL/min.
(§4) The collected data were processed using ProteOn Manager software. First, the data was corrected for background using inter-spots. Then, double reference subtraction of the data was performed by using the buffer injection for analyte injections. The kinetic analysis of the data was performed using a Langmuir 1:1 binding model. The result for each mAb was reported in the format of Ka (On-rate), Kd (Off-rate) and KD (equilibrium dissociation constant).
(§5) The parameters reported in this table were obtained from a 1:1 Langmuir binding model for all samples. Affinity, KD=kd/ka.

human CD40 (SPR analyte) = molecular target: T4, human CD40 (SPR analyte) (human, UniProt P25942 21-193); assay: SPR ProteOn XPR36, mAb captured by anti-human IgG Fc, CD40 as analyte, 25 C
T4 construct: also called huCD40-ECD
Description: as §3, §4, §5

[7] = molecular target: T1, Full length human CD40 (huCD40) on cells; assay: flow cytometry, Raji cells
[8] = molecular target: T1, Full length human CD40 (huCD40) on cells; assay: flow cytometry, HEK-Blue CD40L cells; remark: listed apart in the source
Target sequence in this assay (P25942 21-277): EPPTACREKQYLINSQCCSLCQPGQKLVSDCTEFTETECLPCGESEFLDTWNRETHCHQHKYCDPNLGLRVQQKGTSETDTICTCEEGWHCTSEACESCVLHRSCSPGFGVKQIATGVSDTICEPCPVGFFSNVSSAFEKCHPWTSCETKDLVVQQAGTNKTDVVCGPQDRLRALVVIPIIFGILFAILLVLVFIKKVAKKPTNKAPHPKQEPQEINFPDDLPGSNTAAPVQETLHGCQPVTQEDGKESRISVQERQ

[9] = molecular target: T1, Full length human CD40 (huCD40) on cells; assay: cell-based or functional assay; remark: listed apart in the source
Target sequence in this assay (P25942 21-277): as above

[10] = molecular target: T1, Full length human CD40 (huCD40) on cells; assay: flow cytometry, human B cells
Target sequence in this assay (P25942 21-277): as above

[11] = molecular target: T1, Full length human CD40 (huCD40) on cells; assay: flow cytometry, human DCs
Target sequence in this assay (P25942 21-277): as above

cyno CD40 (SPR analyte) [12] = molecular target: T3, cyno CD40 (SPR analyte); assay: SPR ProteOn XPR36, mAb captured by anti-human IgG Fc, cyno CD40 as analyte, 25 C
Description: as §3, §4

Binder	DC EC50, CD80 surface expression, with cross-linker [1] [ng/mL]	DC EC50, CD83 surface expression, with cross-linker [1] [ng/mL]	DC EC50, CD86 surface expression, with cross-linker [1] [ng/mL]	DC EC50, HLA-DR surface expression, with cross-linker [1] [ng/mL]	EC50 [2] [ng/mL]	EC50 [3] [ng/mL]	EC50 [4] [ng/mL]	B cells EC50, CD23 surface expression, with cross-linker [5] [ng/mL]	B cells EC50, CD80 surface expression, with cross-linker [5] [ng/mL]	B cells EC50, CD83 surface expression, with cross-linker [5] [ng/mL]	B cells EC50, CD86 surface expression, with cross-linker [5] [ng/mL]	B cells EC50, HLA-DR surface expression, with cross-linker [5] [ng/mL]	Kd (human CD40 (SPR analyte)) [nM]	koff (human CD40 (SPR analyte)) [s⁻¹]	EC50 [8] [ng/mL]	EC50, Human B cells (CD83) [9] [ng/mL]	EC50, Human DC (HLA-DR) [9] [ng/mL]	EC50, agonistic activity on HEK-Blue™ CD40L cells (NF-κB/SEAP) [9] [ng/mL]	EC50 [10] [ng/mL]	EC50 [11] [ng/mL]	also measured
B1	70.5	0.962	258	154	30.9	99.6	84.9	6.94	0.0167	0.581	1.26	0.00966	1.21	0.000641							Kd (cyno CD40 (SPR analyte) [6]): 0.412 nM; koff (cyno CD40 (SPR analyte) [6]): 0.000307 s⁻¹; kon (cyno CD40 (SPR analyte) [6]): 746000 M⁻¹ s⁻¹; kon (human CD40 (SPR analyte)): 528000 M⁻¹ s⁻¹; EC50 [7]: 39.6 ng/mL
B2	602	218	381	60.4	71.6	329	228	12.5	1.54	1.26	1.14	0.356	13.1	0.00247							Kd (cyno CD40 (SPR analyte) [6]): 2.64 nM; koff (cyno CD40 (SPR analyte) [6]): 0.000908 s⁻¹; kon (cyno CD40 (SPR analyte) [6]): 343000 M⁻¹ s⁻¹; kon (human CD40 (SPR analyte)): 189000 M⁻¹ s⁻¹; EC50 [7]: 99.4 ng/mL
B3															162	23.9	367	75.1	159	438	
B4	52.3	47.8	30.2	10.5	38.9	352	126	306	48.1	62.4	8.72	23.9	0.151	0.000162	150	22.6	166	69.6	110	267	Kd (cyno CD40 (SPR analyte) [12]): 0.0712 nM; koff (cyno CD40 (SPR analyte) [12]): 9.41e-05 s⁻¹; kon (cyno CD40 (SPR analyte) [12]): 1.32e+06 M⁻¹ s⁻¹; kon (human CD40 (SPR analyte)): 1.07e+06 M⁻¹ s⁻¹; EC50 [7]: 73 ng/mL
B5															112	4.79	388	2.74	75	143	
B6															178	16.7	166	30.8	110	253	
B7															2160	2.82	2970	17.3	6650	5760	
